{"source": "the DeepSol protein solubility set"}
{"assay": "soluble on expression in E. coli; label from the status in PepcDB or PDB records"}
{"sequence": "MSEEQKTISISELESMNIKQLYEIAKSLGIPRYTSMRKRDLIFAILKAQTESTGYFFGEGVLEIHPEGFGFLRRIEDNLLPSNDDIYISPSQIRKFNLNTGDIISGVIRKPKEGEKYFAMIKIEAINYRPVEAVNDRVNFDNLTPDYPRERFILETDPKIYSTRLIDLFAPIGKGQRGMIVAPPKAGKTTILKEIANGIAENHPDTIRIILLIDERPEEVTDIRESTNAIVIAAPFDMPPDKQVKVAELTLEMAKRLVEFNYDVVILLDSLTRLARVYNIVVPPSGKLLTGGVDPAALYKPKRFFGAARNTREGGSLTIIATALVETGSKMDEVIFEEFKGTGNMELVLSRQLANKRIFPAINLLLSGTRREELLLDEETLKKVWLLRRMLSAMTEEEGLTLILNKLSETSSNEEFLKLIDKEKARY", "soluble on expression in E. coli": "soluble"}
{"sequence": "MSEIALEAWGEHEALLLKPPRSPLSIPPPKPRTAVLFPRREGFYTELGGYLPEVRLRFETYGTLSRRRDNAVLVFHALTGSAHLAGTYDEETFRSLSPLEQAFGREGWWDSLVGPGRILDPALYYVVSANHLGSCYGSTGPLSLDPRTGRPYGRDFPPLTIRDLARAQARLLDHLGVEKAIVIGGSLGGMVALEFALMYPERVKKLVVLAAPARHGPWARAFNHLSRQAILQDPEYQKGNPAPKGMALARGIAMMSYRAPEGFEARWGAEPELGETYLDYQGEKFLRRFHAESYLVLSRAMDTHDVGRGRGGVEEALKRLRAIPSLFVGIDTDLLYPAWEVRQAAKAAGARYREIKSPHGHDAFLIETDQVEEILDAFLP", "soluble on expression in E. coli": "soluble"}
{"sequence": "MSEIKRLEINYKTDELFENFRAFGNKDLYMVNELNGQMIDASSDSPFYGIFVGDQLGARMALLKKGDVEEIYFPDFEDYILLWKLEVLPKYQNRGYASELIDFAKSFNMPIKAIGRNDSKDFFLHHGFTDVEAKNIEGHDVLLWKPIRLEHHHHHH", "soluble on expression in E. coli": "not soluble"}
{"sequence": "MSEKETPSPVLDVKKEKNEETGIDEEKSSEDDCSKRSKVKSNPSKFSVNSILSPLESLVRVQQQLLKMAASKSGTPGTNAGVPGAFPYGPGRLPGNYFAGPFPGYSGAQPNWYNGNDPRFAAAAALLPCSIDPVRSAINHQFSMSSMSQRRKRRVLFSQAQVYELERRFKQAKYLTAPEREQLANSIRLTPTQVKIWFQNHRYKCKRQEKEKAMSGLGHSEDGSSPPPDNDDDDDKYSIEMDDKDDEEEEESEKPVLKPSGVFGLPYPPNAAAAAAAAAAAFNFPFAAQGPNPAYYMRW", "soluble on expression in E. coli": "not soluble"}
{"sequence": "MSEKSIVTKILRYLKTVPGCFCWKEHGGMYGTAGLPDIIACVNGRFIAFEVKTPSGKTTKLQEATIKKILNAGGVAAVVHSVDEVKVILEKHDLLQRTKI", "soluble on expression in E. coli": "soluble"}
{"sequence": "MSEKTMGPRQSRPGILTPAQERVAQAIARLGPEISLTDISRMVGGHPNASRQHIKTLENSGYISATQKRGAAGRPAQLYSITPEGLRALAGNATLIAHTSFVRSLSHYIANQPHPEERALALGSQMVRDEGPLPGATKVDKVVNLLEKYGFAPTQAGTEIQLLTCPVLDSAVRHPEVVCTMHRGILNEITGNNTTFILEPFARPGMCVIRTVSPTANPTQT", "soluble on expression in E. coli": "not soluble"}
{"sequence": "MSELLQYSRIKYECTCGKFRTLPDLVFCRYCFKIKCDDCSLGEVDNIFCPRCLEPSSVPEARLKKHKCASCNDCPKCANVLSARTENDNVYLVCQYCRWSSREANQEDQENTKSWPTKENPLVNQLGEVTAYMKRLELIENAPKDLKKGKSGKAWTAFHLKDKFGFQQMVDKRKKALAPEMNPVDAHAPTEAPTLEDEIKERTDDLRTLDQIIMQPLINISEPLLPVQVPLAGRVQVRCDECERTLIKRDFGVTTFKFKISSFARQFVPDIRMSRPVDDLKVGETSHVFLSITNLSSSAMDLTIAPQSGNGFIQCSSDPIQLLLPSSRASDTAAPGVHADQSDVIVFRQHNRVGLRLDVIPTEMDLSSPCLNLLITYCQDGSFRLSSASDKILKPEETCPDPILSANLKVDLR", "soluble on expression in E. coli": "not soluble"}
{"sequence": "MSELTSNRIRTTAAKLGLPHLAEALNQYVQRADEAKMGYLDFLDLVLAEELAVRDDRRFRNGLRLSKLPHHKTLEDYDFSFQPDLDPRKVKDLATLSFIEDKANVALLGPPGVGKTHIAVALAVAACRAGYSIYFTSLDDMVRHLKAAEDQGRLISKLTSYLRPAVLVVDEVGYQPLERAEANLVFQVISKRYEKGSIILTSNKTFGEWGQVFGDEVLATAILDRLLHHCEVVSINGNSYRLKNRLQAIERDTDVALEHHHHHH", "soluble on expression in E. coli": "soluble"}
{"sequence": "MSEPLLRGLAAGDPPSATGPVTGSADKVADVLIVGGGLVGGTLACALAEKGVSVVVIDGEDPEALLAAGYDGRCSAIALACQRLLDTIGLWDLLGGESQPILDIRVVDGGSPLFLHYAQAEAQGPMGYMVENRLLRQAILTRLGRLPAATLLAPARMTALRRDLDGVSATLSDGQTVRARLVVGADGRRSQVRESAGIGIRTLGYGQTAIVLTVEHERSHRGCAVEHFLPAGPFAILPMPGNRSSLVWTERSDLVPGLLALPAEHFQAELERRFGDHLGWVRPVGPRFSYRLTLQAANRYVDHRLALVGDAAHGMHPVAGQGMNYGLRDVAVLAERLVAAQRLGLDPGAPALLAEYEALRRPDNLLMLAITDALVRLFSNDIAPVALARRLGIGAVERMGPLKRLFMRHAMGTLKLGPEPPRLMRGVPLLEHHHHHH", "soluble on expression in E. coli": "soluble"}
{"sequence": "MSEPSNLVSKFQKLRVEASKIQNEFKEKPSYTLFKETLDISEKLLEKQFEFNDEMKQIQQNVMSELKSVKKELKQATSIKDLLEILEIIQKIFKKQDEFQQVQENQNKSIENLNSELKTVKAELNETKKQQESQEKLIDNSDKNLKLILESILKFQKSQDQIMMKIMEGSAVQDVPLGTVELTKIDPFFEILVIWTESCGIFASENHWKLRVCGSDTIRHIKLRINSLAKVDISSFRMVLRGKLLEDHHSLAYYNIQEGALIWLYSHLKMSETSSLMSQFQKLRVETSKIYNEFTEMVKNETSDMKKQQETQILKEQDEFQDEIRQEFLKIQENENKLIEKLMSELKTLKTELNETKNQISDLHNATKQQESQAQSMNDLLTKNSNNNLKMMLKIQEGQDRIMMKIQEGAAVKDVPIESGELAKNDSMFKIFVSWSIPGGIFVSENRRKLPVYESNTIRQIKLRINSLKSQDQMKIQEGEFAKKIEESVAPVKTPLEAPIEDKKLDNKKPFFKITVHLHGGPNASVYGRKYNHLVFDAHTIRDLKVRIKALIMQSSPIKLRTELYRLFFVYTLLEDHQTIAYYKFKKAQHLT", "soluble on expression in E. coli": "soluble"}
{"sequence": "MSEQPQQRSTEEVEAIKEDILTALETVIDPELGIDIVNLGLIYEVEFAEETGDTVIKMTLTTMGCPLADVLTEQIHGVLKDIPEVNNIEVKLVWYPAWTTDKMSRYARIALGIR", "soluble on expression in E. coli": "not soluble"}
{"sequence": "MSERESLSGADNAWRRMGTPTNLMTITGVMMFDERMTYEDLCNRLEERLLRFERFQQRIGGRKRRFRQPYWETVDGFDVEPHVYHISLPEPQDKATFEAFVGKLMSRPLDESRPLWEAYLVDGAGPGEGNAVAFRLNHSIGDGFALLYVLLGLVDNPGDIELPSGMVSAPDDIGDDADSGADGGNGSDESDVASGDGQPADTDSKSDGERGSSGLPSPVSAAGTAATGVATGYDLLFGDDDPDTSLRGELGQTKRAAWTDEIPLEQVRTVCEAQPHRATINDVLLAALAGALRRLLEDRGEPVDGMELHGTVPVNLKPMAERDGSLGNNFGLVFLPLPVGTEPLQERISIIHEWMDGKRAGIQAFLMYALLTIGGHVPEYVQKKVMTLFEDRATGVVTNVPGPTDAIQFAGREITDMIFWVPQANEQGIGISIFSYDGNVRVGVAADENLLGAPGELAAAFEAEMEALLEDAELEHHHHHH", "soluble on expression in E. coli": "soluble"}
{"sequence": "MSESFDCAKCNESLYGRKYIQTDSGPYCVPCYDNTFANTCAECQQLIGHDSRELFYEDRHFHEGCFRCCRCQRSLADEPFTCQDSELLCNDCYCSAFSSQCSACGETVMPGSRKLEYGGQTWHEHCFLCSGCEQPLGSRSFVPDKGAHYCVPCYENKFAPRCARCSKTLTQGGVTYRDQPWHRECLVCTGCQTPLAGQQFTSRDEDPYCVACFGELFAPKCSSCKRPIVGLGGGKYVSFEDRHWHHNCFSCARCSTSLVGQGFVPDGDQVLCQGCSQAGP", "soluble on expression in E. coli": "soluble"}
{"sequence": "MSESRLLTLRDYIRWAVSRFHAAGLFFGHGTDNAWDEARHLVLGSLHLPWEISDSYLDCRLEDDERAELAEILRRRIEERIPAAYLLGEAWFCGIPFSVDERVLVPRSPIAELIEQRFAPWLPAEPARILDLCTGSGCIGIACAYAFEQAEVVLADLSFDALEVANVNIERHDLGERVYTVQGDGFAGLPGQRFDLIVSNPPYVDAEDFADMPAEFHHEPELGLACGDDGLDLVRRMLAEAADHLSEKGLLIVEVGNSEVHVQALYPEVDFTWLEFEHGGHGVFMLSAAQCREHRELFRSRLEK", "soluble on expression in E. coli": "not soluble"}
{"sequence": "MSESVQSNSAVLVHFTLKLDDGTTAESTRNNGKPALFRLGDASLSEGLEQHLLGLKVGDKTTFSLEPDAAFGVPSPDLIQYFSRREFMDAGEPEIGAIMLFTAMDGSEMPGVIREINGDSITVDFNHPLAGQTVHFDIEVLEIDPALEA", "soluble on expression in E. coli": "soluble"}
{"sequence": "MSETFFHLLGPRTQPNDDSFSMNPLPITCQVNDEPSMAALEQCAHSPQVIALLNELQHQLSQRQPPLGEVLAVDLLNLNADDRHFINTLLGEGEVSVRIQQADDSESEIQEAIFCGLWRVRRRRGEKLLEDKLEAGCAPLALWQAATQNLLPTDSLLPPPIDGLMNGLPLAHELLAHVRNPDAQPHSINLTQLPISEADRLFLSRLCGPGNIQIRTIGYGESYINATGLRHVWHLRCTDTLKGPLLESYEICPIPEVVLAAPEDLVDSAQRLSEVCQWLAEAAPT", "soluble on expression in E. coli": "not soluble"}
{"sequence": "MSETVQLDVGGTIFKTSKSTLTKFNGFLKIMLESDIGLKIDESGSIFIDRSPKHFDLILNFMRDGDVVLPSCELTVKELLAEAQFYLLDELIELCSLKIEPVQAPKIKLRFIENDSQLLQILAAQQKPMLIIEYCMVGNDMSIPYNFNLYEFIEKQSHQFDIYFQRLSEDESSHKWKARIKWKPTENGYYSQFPYNLRINRGGRIIRDAKFLFLFFSSWLSSKNHCSLLDMCMIPIDCIVCPFQKISMCVPSLIRIPISSRFISRNIKIISFGLQR", "soluble on expression in E. coli": "soluble"}
{"sequence": "MSEVKKTKVHLISGFLGTGKTTALKSLMAQKDPNEKWVIIVNEFGEIGIDGAVLSDNGIPVAEIAGGCLCCTAGPQMGVTVQKMLRDAKPDRLMIEASGLAHAASVIDELKAKPLDSLLEIGAVFTVVDPRQFINPDYAQQALYKDQIGICDVLAASKTDLCTPEQLAEFHDKAAKLFPPKAKVVEVQNAQLDIQWLDIPVVEKSRYRLKALPDNTMGFQSQGFTFPAGRDFNGEKLTNFFNDLPKMTEGLVRAKGVFQVLGTWVWLNWVDGQWGANQVSWRRDSRFELIAKSFDADLIEQKLKDALELEHHHHHH", "soluble on expression in E. coli": "soluble"}
{"sequence": "MSEVLNRQSREITTIVSQPNISRPNYQREKGKERLLGIKATESSNKAGQSFVPQLNPSGTLFTISMKPPAKINTGYTPVDEQKEVKAEVRNSEITEKSFGQAKFIGVSAGNTVGYVIPNLEPGLSQYLQANRSLRAIGVISSRVGAAAQIMAADEAVKKTNSELIRLELARDELGGPGHGVFALFGAEDVADVIRAVEIALKATEEYYQNIKNTPAGKIETHYTARAAAALNKAFGAPLNQAFGIIIGAPAGVGLLMSDTALKTAHVTMVSFWGPSVVQAFANEVWFTVTGDSAAVKNALEAAREVGLQVLAEFRA", "soluble on expression in E. coli": "not soluble"}
